Values belong to the molecule of their own block, whether it stands above or below them.
Columns and labels:
CBC [1] = target: T1, CBC (Homo sapiens, UniProt P52298); assay: ITC, binding to CBC without cap analogue; details: ITC (MicroCal ITC200), 25 °C, 20 mM HEPES, 120 mM NaCl, 2 mM TCEP, pH 7.8, single-site fit; no cap analogue pre-bound; mean ± SD of at least two independent experiments; SD
T1 sequence (P52298 1-156): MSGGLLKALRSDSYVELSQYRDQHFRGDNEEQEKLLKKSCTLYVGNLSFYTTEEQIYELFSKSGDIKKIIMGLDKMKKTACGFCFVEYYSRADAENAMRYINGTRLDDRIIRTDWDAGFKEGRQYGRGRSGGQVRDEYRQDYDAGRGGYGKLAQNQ
T1 sequence (Q09161 20-790 partner): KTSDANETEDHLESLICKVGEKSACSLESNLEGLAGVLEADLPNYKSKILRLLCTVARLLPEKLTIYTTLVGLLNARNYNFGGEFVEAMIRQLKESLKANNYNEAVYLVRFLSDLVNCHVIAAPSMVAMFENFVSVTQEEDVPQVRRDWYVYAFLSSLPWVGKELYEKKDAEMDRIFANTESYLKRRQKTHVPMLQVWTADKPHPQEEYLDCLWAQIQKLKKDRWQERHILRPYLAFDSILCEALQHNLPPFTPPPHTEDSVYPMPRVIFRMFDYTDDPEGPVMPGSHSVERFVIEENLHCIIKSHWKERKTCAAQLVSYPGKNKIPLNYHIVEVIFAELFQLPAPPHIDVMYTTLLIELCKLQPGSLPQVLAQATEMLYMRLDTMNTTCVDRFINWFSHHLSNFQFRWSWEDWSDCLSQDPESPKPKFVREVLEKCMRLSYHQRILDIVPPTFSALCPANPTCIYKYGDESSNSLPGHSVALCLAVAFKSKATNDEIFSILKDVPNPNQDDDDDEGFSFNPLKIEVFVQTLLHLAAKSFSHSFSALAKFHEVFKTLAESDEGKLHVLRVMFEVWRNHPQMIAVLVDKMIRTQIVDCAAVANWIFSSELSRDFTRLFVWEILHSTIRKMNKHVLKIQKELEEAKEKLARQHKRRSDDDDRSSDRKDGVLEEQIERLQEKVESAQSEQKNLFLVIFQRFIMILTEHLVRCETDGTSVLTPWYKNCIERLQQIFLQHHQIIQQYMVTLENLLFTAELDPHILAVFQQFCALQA
Source text: (§1) hARS2 isoform-4 (871 residues, UniProt:Q9BXP5-4, also known as isoform-e, NP_001122326) constructs (residues 147–871, 147–845, 763–871, 763–845, 827–871) hNELF-E (NM_002904.5) (244–380, 244–360) and hPHAX (NM_032177.3) (1–394, 103–294, 103–308, 103–327) were cloned into pETM11 (EMBL). Full-length hNELF-E (1–380) was cloned into pFASTBac and CBP20 into pETM30. Primers used are given in Supplementary Table 2. All constructs were expressed in E. coli Rosetta 2 (Novagen), except full-length NELF-E and CBP80ΔNLS (CBP80 with residues 1–19 deleted[2]), which were expressed in High Five insect cells (Life Technology). Cells were harvested and lysed by sonication in lysis buffer containing 50 mM HEPES, pH 7.8, 300 mM NaCl, 10% (v/v) glycerol, 5 mM β-mercaptoethanol. Lysates were clarified by centrifugation and applied on an equilibrated Ni-sepharose column (GE Healthcare), washed with 20 mM imidazole in lysis buffer, and eluted with 300 mM imidazole in lysis buffer. While dialysing into 20 mM HEPES, pH 7.8, 120 mM NaCl, 10% (v/v) glycerol, 5 mM β-mercaptoethanol, the N-terminal 6-histidine-tag was cleaved with His-tagged Tobacco Etch Virus (TEV) protease overnight in a ratio 1:100 mg TEV per mg protein. The cleaved protein was further purified first on Ni-sepharose to remove TEV and then using an anion exchange column (HiTrap Q, GE Healthcare) followed if necessary by a Heparin column (GE Healthcare). In both cases a NaCl gradient from 50 to 800 mM in 20 mM HEPES 7.8, 0.5 mM tris(2-carboxyethyl)phosphine was used. To reconstitute the CBC heterodimer, cleared His-tagged CBP20 lysate was first immobilised on a Ni-sepharose column. After washing the column with lysis buffer, the cleared CBP80 lysate was applied to the column and further purification steps performed as described above. To remove the access of CBP20 the flow through of the Ni-column after TEV cleavage was loaded on an anion exchange column (HiTrap Q, GE Healthcare) and CBC eluted by a NaCl gradient as described above. In the text we refer to CBP80ΔNLS and CBP80ΔNLS-CBP20 as CBP80 and CBC, respectively. ARS2^845–871, NELF-E^354–380, and NELF-E^360–380 peptides, with or without FAM label at the N-terminus, were purchased from GenScript.

CBC [2] = target: T1, CBC; assay: Size exclusion chromatography (gel filtration) co-elution with CBC, with m^7GTP; format: binding; details: gel filtration with 500 µM m^7GTP, fractions analysed by SDS-PAGE
Experimental: Fig. 1 The interaction of CBC with ARS2 is enhanced in the presence of m^7GTP. a Schematic diagram of the domain structure of ARS2 based on ref. [26]. b Gel filtration chromatogram and Coomassie-stained SDS-PAGE of CBC-ARS2 in the presence and absence of m^7GTP. Purified recombinant CBC and ARS2^147–871 were mixed with (orange) or without (blue) 500 µM m^7GTP and subjected to gel filtration. Their elution profiles were overlaid (left) and single fractions analysed by SDS-PAGE (middle and right). Purified recombinant CBC and C-terminally truncated ARS2^147–845 were mixed with 500 µM m^7GTP and analysed in a similar way (bottom left). c ITC data and curve fit to derive the affinity of different ARS2 constructs for CBC. CBC or m^7GTP-CBC in the sample cell was titrated by ARS2. […] K D values and standard deviation represent the average from at least two independent experiments. d Sequence alignment of the C-terminus of ARS2. Conserved residues are highlighted in red. Figure made with ESPript[54]
Fig. 2 The interaction of CBC with NELF-E is enhanced in the presence of m^7GTP. a Schematic diagram of the domain structure of NELF-E. b Gel filtration chromatogram and Coomassie-stained SDS-PAGE of CBC-NELF-E in the presence and absence of m^7GTP. Purified recombinant CBC and NELF-E were mixed with (orange) or without (green) 500 µM m^7GTP and subjected to gel filtration. Their elution profiles were overlaid (left) and single fractions analysed by SDS-PAGE (middle and right). Purified recombinant CBC and NELF-E^244–360 were mixed together with 500 µM m^7GTP and similarly analysed (bottom left). c ITC data and curve fit to derive the affinity of different NELF-E constructs for CBC. CBC or m^7GTP-CBC in the sample cell was titrated by NELF-E^244–380 or NELF-E^360–380. The data were presented as described in the caption to Fig. 1c. d Sequence alignment of the C-terminus of NELF-E. Conserved residues are highlighted in red. Figure made with ESPript[54]

m^7GTP-CBC = target: T2, m^7GTP-CBC (Homo sapiens, UniProt P52298+Q09161); assay: ITC, binding to CBC in the presence of the cap analogue m^7GTP; details: ITC, 25 °C, 20 mM HEPES, 120 mM NaCl, 2 mM TCEP, pH 7.8, CBC bound to m^7GTP, mean ± SD of at least two independent experiments
T2 construct: 6-histidine tag (pETM30 vector) (N, cleaved yes); made in house; host or cells: CBP20 in E. coli Rosetta 2; CBP80ΔNLS in High Five insect cells; heterodimer reconstituted on Ni-sepharose
T2 sequence (Q09161 20-790): T1 sequence (Q09161 20-790 partner)
T2 sequence (P52298 1-156): T1 sequence (P52298 1-156)
Source text: as §1

Kd (CBC [1]): 600 ± 140 nM
B1: PHAX 103–308: human PHAX residues 103–308 (protein, UniProt Q9H814 103-308, looked up, fragment)
chain: SQKPPVAGGKKINNIWGAVLQEQNQDAVATELGILGMEGTIDRSRQSETYNYLLAKKLRKESQEHTKDLDKELDEYMHGGKKMGSKEEENGQGHLKRKRPVKDRLGNRPEMNYKGRYEITAEDSQEKVADEISFRLQEPKKDLIARVVRIIGNKKAIELLMETAEVEQNGGLFIMNGSRRRTPGGVFLNLLKNTPSISEEQIKDIF

Kd (CBC [1]): 850 ± 210 nM
B3: PHAX 103–294: human PHAX residues 103–294, minimal CBC binding region (protein, UniProt Q9H814 103-294, looked up, fragment)
chain: SQKPPVAGGKKINNIWGAVLQEQNQDAVATELGILGMEGTIDRSRQSETYNYLLAKKLRKESQEHTKDLDKELDEYMHGGKKMGSKEEENGQGHLKRKRPVKDRLGNRPEMNYKGRYEITAEDSQEKVADEISFRLQEPKKDLIARVVRIIGNKKAIELLMETAEVEQNGGLFIMNGSRRRTPGGVFLNLLK

The remaining lines, values behind:

B2: ARS2^147–845: C-terminally truncated ARS2, residues 147–845 (protein, UniProt Q9BXP5 147-845, looked up, fragment)
chain: PVMKTFKEFLLSLDDSVDETEAVKRYNDYKLDFRRQQMQDFFLAHKDEEWFRSKYHPDEVGKRRQEARGALQNRLRVFLSLMETGWFDNLLLDIDKADAIVKMLDAAVIKMEGGTENDLRILEQEEEEEQAGKPGEPSKKEEGRAGAGLGDGERKTNDKDEKKEDGKQAENDSSNDDKTKKSEGDGDKEEKKEDSEKEAKKSSKKRNRKHSGDDSFDEGSVSESESESESGQAEEEKEEAEEALKEKEKPKEEEWEKPKDAAGLECKPRPLHKTCSLFMRNIAPNISRAEIISLCKRYPGFMRVALSEPQPERRFFRRGWVTFDRSVNIKEICWNLQNIRLRECELSPGVNRDLTRRVRNINGITQHKQIVRNDIKLAAKLIHTLDDRTQLWASEPGTPPLPTSLPSQNPILKNITDYLIEEVSAEEEELLGSSGGAPPEEPPKEGNPAEINVERDEKLIKVLDKLLLYLRIVHSLDYYNTCEYPNEDEMPNRCGIIHVRGPMPPNRISHGEVLEWQKTFEEKLTPLLSVRESLSEEEAQKMGRKDPEQEVEKFVTSNTQELGKDKWLCPLSGKKFKGPEFVRKHIFNKHAEKIEEVKKEVAFFNNFLTDAKRPALPEIKPAQPPGPAQILPPGLTPGLPYPHQTPQGLMPYGQPRPPILGYGAGAVRPAVPTGGPPYPHAPYGAGRGNYDAFRGQGGY
Interaction with CBC by SEC in the presence of m^7GTP (CBC [2]): failed to bind

B4: NELF-E 244–360: NELF-E fragment that lacks the last 20 residues (protein, UniProt P18615 244-360, looked up, fragment)
chain: GPFRRSDSFPERRAPRKGNTLYVYGEDMTPTLLRGAFSPFGNIIDLSMDPPRNCAFVTYEKMESADQAVAELNGTQVESVQLKVNIARKQPMLDAATGKSVWGSLAVQNSPKGCHRD
Interaction with CBC by SEC in the presence of m^7GTP (CBC [2]): no stable complex is observed by SEC

B5: ARS2 763–871: human ARS2 isoform 4 residues 763–871, E. coli expressed (protein, UniProt Q9BXP5 763-871, looked up, fragment)
chain: PEIKPAQPPGPAQILPPGLTPGLPYPHQTPQGLMPYGQPRPPILGYGAGAVRPAVPTGGPPYPHAPYGAGRGNYDAFRGQGGYPGKPRNRMVRGDPRAIVEYRDLDAPD
modifications: isoform 4
notes: human ARS2 isoform 4 residues 763–871, E. coli expressed
Kd (m^7GTP-CBC; SD): 1000 ± 300 nM

B6: ARS2 763–845: human ARS2 isoform 4 residues 763–845, lacks the C-terminal 27 amino acids (protein, UniProt Q9BXP5 763-845, looked up, fragment)
chain: PEIKPAQPPGPAQILPPGLTPGLPYPHQTPQGLMPYGQPRPPILGYGAGAVRPAVPTGGPPYPHAPYGAGRGNYDAFRGQGGY
modifications: isoform 4
notes: human ARS2 isoform 4 residues 763–845, lacks the C-terminal 27 amino acids
K D (m^7GTP-CBC): failed to bind

From paper PMC5670239, “Structural basis for mutually exclusive co-transcriptional nuclear cap-binding complexes with either NELF-E or ARS2” (Nature Communications, 2017)
